From US20140309404A1 (Eli Lilly, published 2014) come the findings set out here.

Test [1] addresses T1, human BMP-6 (human, UniProt P22004 382-513, limits assumed).
T1 construct: Bought from R&D Systems
T1 sequence: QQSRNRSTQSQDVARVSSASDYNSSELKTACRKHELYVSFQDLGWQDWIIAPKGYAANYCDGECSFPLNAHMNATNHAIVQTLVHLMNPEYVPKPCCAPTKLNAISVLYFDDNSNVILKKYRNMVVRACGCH
The experiment in a line: SPR (BIAcore), BMP-6 immobilised on CM4 chip, antibody injected, 37 C.

The next test addresses T2, human BMP-5 (human, UniProt P22003 317-454, limits assumed).
T2 sequence (looked up): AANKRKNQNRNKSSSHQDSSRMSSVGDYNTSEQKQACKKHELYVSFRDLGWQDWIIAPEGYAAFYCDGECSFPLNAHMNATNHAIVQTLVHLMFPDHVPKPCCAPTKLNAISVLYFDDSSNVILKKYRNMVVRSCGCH
The experiment in a line: SPR (BIAcore), BMP immobilised on CM4 chip, antibody injected, 37 C. Background: Surface plasmon resonance follows binding to a sensor surface in real time, without labels.

For the next test, the target named is T3, human BMP-7 (human, UniProt P18075 293-431).
T3 sequence (looked up): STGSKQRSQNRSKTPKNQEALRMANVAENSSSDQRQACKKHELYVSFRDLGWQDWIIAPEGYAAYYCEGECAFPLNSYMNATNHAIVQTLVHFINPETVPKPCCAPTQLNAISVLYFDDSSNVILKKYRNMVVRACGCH
The description is as above.

Test [2] concerns the target T1, human BMP-6. Nature of the test: SPR (BIAcore), ratio of KD against MAB507, 37 C.
In test [3] the target is T1, human BMP-6. Nature of the test: cell-based or functional assay.
Test [4] concerns the target T1, human BMP-6. The experiment in a line: cell-based or functional assay. The source holds these as a separate data set.
For a further test, the target named is T4, Cynomolgus monkey BMP-6 (cynomolgus monkey).
T4 construct: also called Cyno Monkey BMP-6
The experiment in a line: SPR (BIAcore), Fab on cynomolgus monkey BMP-6, 37 C.

In test [5] the target is T1, human BMP-6. Nature of the test: SPR (BIAcore), Fab on human BMP-6, 37 C.
Test [6] has as its target T1, human BMP-6. Nature of the test: SPR (BIAcore), Fab on human BMP-6, 37 C. The source holds these as a separate data set.
A further test concerns the target T5, rat BMP-6 (rat, UniProt Q04906 368-506, limits assumed).
T5 sequence (looked up): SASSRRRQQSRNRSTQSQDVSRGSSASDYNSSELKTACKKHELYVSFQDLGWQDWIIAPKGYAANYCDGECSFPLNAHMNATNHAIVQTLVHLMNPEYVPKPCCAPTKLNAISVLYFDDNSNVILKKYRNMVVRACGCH
The experiment in a line: SPR (BIAcore), Fab on rat BMP-6, 37 C.

B1: Antibody I (antibody, human IgG4 S228P, kappa, F234A L235A, V domains shown)
VH: QVQLVQSGAEVKKPGSSVKVSCKASGYTFTSYAMHWVRQAPGQGLEWMGYINPYNDGTKYNENFKGRVTITADESTSTAYMELSSLRSEDTAVYYCARRPFGNAMDIWGQGTLVTVSS
VL: DIQMTQSPSSLSASVGDRVTITCRSSENIYRNLAWYQQKPGKAPKLLIYAATNLADGVPSRFSGSGSGTDFTLTISSLQPEDFATYYCQGIWGTPLTFGGGTKVEIKR
notes: Engineered antibody with human frameworks and constant regions
For B1, in the test with human BMP-6 [1], the Kd amounted to 0.02 nM, the koff is 4.05e-05 s⁻¹ and the kon stood at 1.73e+06 M⁻¹ s⁻¹. Further, the binding result with human BMP-5 was “no binding (tested: up to 1000 nM antibody)”. Also, the binding result with human BMP-7 is recorded as “no binding (tested: up to 1000 nM antibody)”. Besides, the “fold higher affinity than MAB507” value with human BMP-6 [2] was 50 fold. In addition, the “Geometric Mean IC50 (nM), BMP-6 induced Hep_Luc Assay (hepcidin promoter luciferase, HepProm_Luc cells)” value with human BMP-6 [3] was 0.99 nM. Besides, the “fold potency against MAB507 in inhibition of BMP-6-induced hepcidin promoter luciferase activity” value with human BMP-6 [4] is about 22 fold.

B2: Fab of Antibody I (Fab, V domains shown)
VH: QVQLVQSGAEVKKPGSSVKVSCKASGYTFTSYAMHWVRQAPGQGLEWMGYINPYNDGTKYNENFKGRVTITADESTSTAYMELSSLRSEDTAVYYCARRPFGNAMDIWGQGTLVTVSS
VL: DIQMTQSPSSLSASVGDRVTITCRSSENIYRNLAWYQQKPGKAPKLLIYAATNLADGVPSRFSGSGSGTDFTLTISSLQPEDFATYYCQGIWGTPLTFGGGTKVEIK
notes: These are the variable regions of Antibody I; also called Antibody I Fab
On to B2, for which the Kd in the test with Cynomolgus monkey BMP-6 worked out at 0.0796 nM; in the test with human BMP-6 [5] it was 0.0845 nM; in the test with human BMP-6 [6], 0.09 nM; in the test with rat BMP-6 it was 0.088 nM. Besides, the koff stood at 0.00028 s⁻¹ in the test with Cynomolgus monkey BMP-6, 0.00028 s⁻¹ in the test with human BMP-6 [5], 0.00023 s⁻¹ in the test with human BMP-6 [6] and 0.0003 s⁻¹ with rat BMP-6. Moreover, the kon amounted to 4.1e+06 M⁻¹ s⁻¹ with Cynomolgus monkey BMP-6, 3.7e+06 M⁻¹ s⁻¹ with human BMP-6 [5], 2.5e+06 M⁻¹ s⁻¹ in the test with human BMP-6 [6] and 4.1e+06 M⁻¹ s⁻¹ in the test with rat BMP-6.

B3: Antibody II (antibody, human IgG4 S228P, kappa, F234A L235A, V domains shown)
VH: QVQLVQSGAEVKKPGSSVKVSCKASGYTFTSYAMHWVRQAPGQGLEWMGYINPYNRGTKYNENFKGRVTITADESTSTAYMELSSLRSEDTAVYYCARRPFGNAMDIWGQGTLVTVSS
VL: DIQMTQSPSSLSASVGDRVTITCRSSENIYRNLAWYQQKPGKAPKLLIYAATNLADGVPSRFSGSGSGTDFTLTISSLQPEDFATYYCQGIWGTPLTFGGGTKVEIKR
For B3, in the test with human BMP-6 [3], the “Geometric Mean IC50 (nM), BMP-6 induced Hep_Luc Assay (hepcidin promoter luciferase, HepProm_Luc cells)” value came to 0.94 nM. The “fold potency against MAB507 in inhibition of BMP-6-induced hepcidin promoter luciferase activity” value with human BMP-6 [4] was about 22 fold.

B4: Fab of Antibody II (Fab, V domains shown)
VH: QVQLVQSGAEVKKPGSSVKVSCKASGYTFTSYAMHWVRQAPGQGLEWMGYINPYNRGTKYNENFKGRVTITADESTSTAYMELSSLRSEDTAVYYCARRPFGNAMDIWGQGTLVTVSS
VL: DIQMTQSPSSLSASVGDRVTITCRSSENIYRNLAWYQQKPGKAPKLLIYAATNLADGVPSRFSGSGSGTDFTLTISSLQPEDFATYYCQGIWGTPLTFGGGTKVEIK
notes: These are the variable regions of Antibody II; also called Antibody II Fab
With B4, in the test with human BMP-6 [6], binding was put at a Kd of 0.08 nM, the koff turned out to be 0.00025 s⁻¹ and the kon is 3e+06 M⁻¹ s⁻¹.

Broadly, the Kd is the constant that tells how readily two partners part at equilibrium. Broadly, the koff is the rate constant with which the complex falls apart. For orientation: kon means the rate constant with which the complex forms.
